According to PMC3107735:

Tests used:
[1] = target: human thrombin (human, UniProt P00734;P00734 328-363;364-622); test: ITC
[2] = target: alpha-thrombin (bovine, UniProt P00735;P00735 318-366;367-625); test: ITC

B1: thrombin-binding DNA aptamer (15-mer, Bock et al.) (structured_DNA)
DNA: GGTTGGTGTGGTTGG
Question: Does B1 bind [1]?
Answer: Result: binds

Question: What about the Kd [2] of the same binder?
Answer: The Kd was 111 nM.
